According to the nanobody polyreactivity screen of Harvey et al. (2022):

Assay: yeast display, Sf9 membrane polyspecificity reagent, FACS + sequencing; frameworks hold sequencing errors
Summary of the method: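 Galactose-induced (36–48 hours) yeast carrying a synthetic nanobody display library were exposed to 10% biotinylated, detergent-solubilized Sf9 membrane reagent at 4 °C for 1 hour. FACS followed streptavidin microbead enrichment, using low and high (top ~1%) gates for expression (anti-HA) and reagent binding (streptavidin). Colony PCR, MiSeq 2 × 250 sequencing and CDR-length filtering followed. Labels for polyreactivity reflect the gate of origin.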

| Sequence | polyreactivity (PSR sort gate) |
| --- | --- |
| QDQLVESVGGLVQAGGSLRLSCAASGSTIVRNAMGWYRQPPGKERELVAAISVDSGSTYYADSVKGRFTISRDNAKNTVYLQMNSLKPEDTAVYYCAADGTRGQEYDYWGQGTLVTVSS | low polyreactivity |
| QDQLVESVGGLVQAGGSLRLSCAASVRIFYWNAIGWYRQATGKESELVATITRGDRTYYADSVKGRFTISRDNAKNTVYLQMNSLKPEDTAVYYCARSSNPYFYGMYYWGQGTQVTVSS | high polyreactivity |
| QDQLVESVGGLVQAGVSLPLSCAASGIIFLYNDMGWFRQARGKAREFVATLSRSGGSTYYADSVKGRVTISRDNAKNTVYLQMNRLKPEETAVYYCAADEDSGYGYWGQGTQVTVTS | low polyreactivity |
| QDQLVESWGALVQAGGRLRLICAASGTIFSRNTMRSYRQAPGKDRELVAGISSSGSRTYYADSVKGRFTISRDNAKNTVYLQMNSLKPEDNAVYYCAAEHQRSRGRRYYIGYDYWGQGTQVTVSS | low polyreactivity |
| QDQLVETGGGLVQAGGSLRLSCSASGSIFAAYTMGWYRQAPGKECELVATISSGGSTYYADSVKGRFTISRDNAKNTVYLQMNSLKPEDTAVYYCAAVAYTYTEYEYWGQGTQVTVSS | low polyreactivity |
| QDQLVQSGGGIVQAGGSLRLSCAASGSTFILYAMGWYRQAPGKESELVAAISTSGGSTYYADSVKGRVTISRDNAKNTVYFHMNSLKPDDTAVYYCIAGLSVTHGTSIPFRKYEYWGQGTQVNVSS | low polyreactivity |
| QDQRVDSGGGLVQAGGSLRLSCTAYGFIFGWYAMGWYRQSPGKASQLVAPISQSVGSTYYADSVKGRFTISRDNAKNTVYLQMNSLKPEDSAVYYCNAVGRGSRSRLSSRAGGGDYWGQGTQVTVSS | high polyreactivity |
| QDQRVESGGGIDQAGGSLRLSCAASGSTVDFNAMGWYRQAPGTERELVAAITYSGGSTYYADSVKGRFTISRDNAKNTVYLQMNSLKPQDTAVYYCAAEDVYPGSIDMDYWGQGTQVSVSS | low polyreactivity |
| QDQVVESGGGLVQAGGSVRLSCADSGSIFWRNAMGWYRQAPGKEREWVAAITSGGTTNYADSVKGRFTLSRDNAKNTVYLQLNTQKPEVTAGDYCATGASDLRRYDHPHSDVDYWGQGTQVTVSA | low polyreactivity |
| QEHLVESGGGLVQAGGTLRLSCAASGGTFYVNDMGWYRQPPGKESELVATITYSGTSTYYADSVTGSFTISRDNAKNTVYLQMNSLKPEDTAVYYGATDVLLYLEPVNLDYCGQGTQVTVSS | low polyreactivity |
| QEQLEESGGGVVQAGGSLRLSCAAYGSIFYAYSMGWYRQAPGKEREFVAASSKRGGSTYYSDSVKGRFTISRDNEKNTVYLQMNSLKPEDTAVYYCYVGYGYWRGVKQSYDRFDYWGQGTQVTVSS | high polyreactivity |
| QEQLLESGGGLVQAGGSLRLSCAASGYISSHIMSWYRQAPGKEREFVDTITDGGTTNYADSVKGRFTISRDNAKNTVYLQMNSLKPEDTAVYYCAAVATYSYHFGYWGHGTQVTVSS | high polyreactivity |
| QEQLQDSGGGLVQAGGSLRLSCAASGYISSLAAMGWYRQAPGKERDLVAGNDLGTITNYADSVKGRLTISRDNAKNNVYLQMNSLKPEDTEVYYCAKYRWYGVYWGQGTHVTVSS | low polyreactivity |
| QEQLQESAGGLVQACGSQRLSCAASGSISEGQDMGSYRRAPGKEREFVAGIAPGATTYYADSVKGRFTISRDNAKKTVYRQMNSLKAEDTAVYYCAARSVTETDHDYWGQGTQVTVSS | low polyreactivity |
| QEQLQESGGGLVHAGGSLRLSCAASGSISQAWYMGWYRQAPGKERELVAAINGGAITYYADSVKGRFSISRDNAKNTVYLPMNSLTPEDTAVYYCAVDQYSEAYYDYWGQGTQATVSS | high polyreactivity |
| QEQLQESGGGLVKAGGSLRLSCAASGNISNHNDMGWYRQAPGKEREFVAGITAGGITNYADSVKGRFTISRDNAKNTVYLQMNSLKPEDTAVYYCAAYPDYAKSYGYWGQGTQATVSS | low polyreactivity |
| QEQLQESGGGLVQAGGSLRLSCAASGTITVLYKMGWFRQAPGKEREFVASINYGTSTYYADSVKGRFTVSRDSAKNTVYLQMNSLKPEDTAVYYCAAAYRWQDVYRYWGQGTQVTVSS | low polyreactivity |
| QEQLQESGGGQVQAGGSLLLSCAASGNIIRYYYMGWYRQAPGKERELVAAITYGTSTNYADSVKGRFTISRDNAINTVYLQMNSLKPEDTAVYYCAVDVNYGDPLDNWGQGTQVTVSS | high polyreactivity |
| QEQLVESGGGLVQAGGSLRLSCAASGFIFPGYTMGWYRQAPGKERELVAAISRGSSTFYADSVKGRFTISRDNAKNTVYLQMNSLKPEDTAFYYCNTRVYAITLYDYWGQGTQVTVSS | low polyreactivity |
| QEQLVESVGGLVQARGSLRLSGAASGYTFKYNALGWYRPAPGKERELVAAITSGGSTNYADSVKGRFTISRDNAKNTVYLQMNSLKPEDTAVYYCAAAQPRTNAYRVGSWGQGTQVTVSS | high polyreactivity |
| QEQQQESGGGLVQAGGSLRLSCSSSGSIILFYTMGWYRHAPVKERECVAGITLGTTTYNADSVKGRFTISRDNVKISVYLQMNSLKPEDTAVDYCAVAVGHYTEFWYWGQGTQVTMSS | high polyreactivity |
| QFHHVESGGGLVQAGCSLRLSCGASGLTSAIYVMGLYRQAPGKEREFVADITWNAGSTYYADSVQGRFTISRDNAKNTVYVEMKSLKPEDTAVYYCNAYIVSGFYEYDFWGQGTQVTVSS | high polyreactivity |

| Sequence | polyreactivity (PSR sort gate) |
| --- | --- |
| QFHLLESGGRLDQAGGSLRLSCAASGIIFRGNAMGWYIQAPGKERELVAAISSGGSTYYADTVKGSFTISRDNAKNTVYLKMNCLKPEDTAVYYCNARWYFWGTLYGSWGQGTQVTVSS | high polyreactivity |
| QFHLVDSGGGLVQAGGRLRLSCPASGGICYQYAMGWYRQAPGKEREFVAAISRRGGSTYYADSVKGRFTISRDNAKNTVYLQMNSLKPEDTAVYYCAAAPSTRGGYQQMDSWGQGTQVTVSS | high polyreactivity |
| QFHLVESGGGLVQAGGSLRLSCSASGLTFYQNSLGWSRQAPGKEMELVAAIRWGGGSTYYADSVKGRFTISRDNAKNTVYLQMNCLKPVDTAVYYCAAEYYGWPYDYWGQGTQVTVSS | high polyreactivity |
| QFHLVESGRGLVQAGGSLRLSCAASGRIFCVNAMGWYRQAPGKERELVADISSGGSTNYADSVKGRFTISRDNAKNTVYLQMNSLKPEDTAFYYCNARFRFRYKFPSRNSWGQGTLVTVSS | high polyreactivity |
| QFQHVESGGCLVQAGGSLRLSSAASGYMFYWYDMGWYRQAPGKERELVAVITSSGLSTYYADSVKGRFTISRDNAKNTVYLQMNSLKPEDTAVYYCNKANTQYSYYFYDYWGQGTQVTVSS | low polyreactivity |
| QFQIVDSVRGLVQAGGSLRLSCAASGITFDFYAIGWYRQAPGKERELVAAISYSGTSTSYADSVKGRFTISRDNAKNTVYLQMNSLKAEDTAVYYCNARIGWTHSYYELDYWGQGTQVTVSS | low polyreactivity |
| QFQLEESGGGIVQAGGSLRLSCAASGSTFYYNAMGWYRQAPGKERDLVAAITGSGTGTNYADSVKGRFTISRDNAKITVYLQMNSLKTEDTAVYYCAADYVWRGDPINSYLSWYVYWGQGTQVTVSS | low polyreactivity |
| QFQLEESGGGLVQAGGSLRLSCAASGFTFFTYAMGWYRQAPGKERELVAAITTGGSTNYADSVKGRFTISRDNAKNTVYLQMNSLKPEDTAVYYCAVYGYVYGSAVQYDYWGQGTQVTVSS | low polyreactivity |
| QFQLEESGGGLVQAGGSLRLSCAASGSIFKGYTMGWYRQAPRKVREFVASMSRRGGSTYYADSVKGRFTISRDYAKNTVYLQMNSLKPEDTAVYYCAKDYGKAYDDWGQGTQVTVSS | high polyreactivity |
| QFQLEESGGGLVQAGGSLRLSCADSGIIFFFYAMGWYRQAPGKERELVAAISDDGVSTDYADSVKGRFTISRDNAKNTVYLQMNSLKPEDTAVYYCAAKTERVYPWFSFGYWGQGTQVTVSS | low polyreactivity |
| QFQLVEAGGGLVQAGGSLRLSCAASGRIFTYYAMGWYSQAPGKERELVAAITGSGGSTYYADSVKGRFTISRDNAKTTVYLQMISLKPEDTAVYYCARTDRRLGAHQGDYWGQGTQVTVSS | high polyreactivity |
| QFQLVESGGGLDQAGGSLRLSCAASGLTFYGYAMGWYRQAPGKERELVAAITWGGGSTYYADSVKGRFTISRDKAKNTVYLQMNSLKPEETEVYYCNADYYLPAIRYDYWGQGTKVTVSS | low polyreactivity |
| QFQLVESGGGLDQAGGSLRLSCAASGRIFDGYVMGWYRQAPGKDRELVAAISSSGGRTYYADSVKGRFTISRDNAKNTVYLQMNCLKPDDTAVYYCAARYGRYRSVDYWGQGTQVTVSS | high polyreactivity |
| QFQLVESGGGLDQAGGSLRLSCAASGRTFCNNAMGSYRQAAGKETELFAAISVLGGSTYYADSVKGRFTISRDNAKYTVFLQMNSLKPEDTAVYYCATRSRGWIAPPWQGSDGLYYWGQGTQVTVSS | low polyreactivity |
| QFQLVESGGGLFQAGGSLRLICAASGSNFGGNTMSWYRHAPGKERDLVAAISRSGTRTYYADSVKGRFTISRDTAKNTVYLQMKSLKPVATAVYYCNAKKVLPPPYDYWGQGTQVTVST | high polyreactivity |
| QFQLVESGGGLVHAGGSLRLSCASSGSIFVVYAMGWYRQAPGKEREFVASIRTGGSTNYADSVKGRFTISRDNAKNTVYLQMNSLKPEDTAVYYCAAASWNSNRHYYVARYYYWGQGTQVTVSS | high polyreactivity |
| QFQLVESGGGLVQAGASLRLSCAASGNIFPAYAMGWYRQAPGKERELVATISRRGGGTYYADSVKGRFTISRDNAKNTVYLQMNSLKQEDTAVYYCNVAGWTSAYDYWGQGTQVTVSS | low polyreactivity |
| QFQLVESGGGLVQAGASLRLSSAASGSTFVFYAMGWYRQAPGKERELVATISTGVSTYADSVKGRFTISRDNAKNTVYLQMNSLKPEDTAVYYCAADSLFGHYDYSGQGTQVTVSS | low polyreactivity |
| QFQLVESGGGLVQAGGILRLSCAASGSTFCVYAMGWYRQAPGKERELVATINSGGSTNYADSVKGRFTISRDNAKNTVYLQMNSLKPEDTAVYYCAAGPFWQDFYVYEYDYWGQGTQVTVSS | low polyreactivity |
| QFQLVESGGGLVQAGGSLLLSCAASGSIFAPYDMGWYRQEPGKERELVAAISSSGGSTYYEDSVKGRFTISRDNSKNTVYLHMNSQKPEDTAVYYCDPEPYHGLYDYSGQGTQVTVSS | low polyreactivity |
| QFQLVESGGGLVQAGGSLRISCAASGSIFLFYAMGWYRKAPGKERELVAAIDQSGGSTYYADSVKGRFTFSRDNAKKTVYFQMNSLKPEDTAVYYSAAVHSLYWLGDDTYGYDYWGQGTQVTVSS | low polyreactivity |
